The results in this text go back to patent publication US20250051437A1 (University of California, published 2025).

In experiment [1] the target is T1, human CDH17-mGFP fusion protein overexpressed on HEK293T cells (clone G11) (human, UniProt Q12864 23-832).
T1 construct: also called HEK293T CDH17mGFP Clone G11; HEK293T Human CDH17mGFP G11; not shown: mGFP fluorescent protein fused to CDH17
The experiment can be described thus: KinExA, cell-based, HEK293T overexpressing human CDH17-mGFP (FIG. 16). As for the experimental part: The cell-based antibody affinity (KD) of the anti-CDH17 antibodies was measured by KinExA 4000 (Sapidyne Instrument, Boise, Idaho). Briefly, HEK293T overexpressing CDH17-fluorescent protein fusion (i.e., human CDH17-mGFP, monkey CDH17-mGFP, mouse CDH17-mGFP or rat CDH17-mGFP) were detached with Versene and equilibrated with either 50 pM, 200 pM, 20 nM, or 50 nM antibody in 2% FBS/DMEM at 4° C. overnight. The cell concentration started at 5×10⁶ cells/mL or 1×10⁷ cells/mL and 2-fold serial dilutions were performed up to 10 points. The next day, the cells were centrifuged at 1500 rpm for 10 min and the supernatants were saved. […] In contrast, while the humanized anti-CDH17 antibody, 07-0653-h43, fails to bind mouse CDH17 protein, it binds rat CDH17 protein equally well as to human and monkey CDH17 protein such that its Kp is less than about 1 nM for human, monkey and rat CDH17 proteins with overlapping 95% confidence interval values.
For orientation: In KinExA the mixture passes briefly over coated beads that capture the unbound partner.

The target of experiment [2] is T2, human cadherin-17 (CDH17), endogenously expressed on human cancer cell lines (LS513, SNU-C1, PaTu8988s, … (human, UniProt Q12864 23-832)).
T2 construct: also called LS513 (Colon, CDH17+); HPAF2
Nature of the experiment: flow cytometry (iQue) on SNUC1 cells, 0.2 µg Ab. A general note: A flow cytometer gives signals particle by particle.

B1: humanized anti-CDH17 antibody 07-0663-h7 (antibody, human IgG1, kappa, V domains shown)
VH: QVQLVQSGAEVKKPGSSVKISCKVSGYTFTDHTIHWMRQAPGQGLEWIGYIFPRDDIVVYAQKFQGRATLTADKSTSTAYMELSSLRSEDTAVYYCARPPYYYSRNFYFDYWGQGTTLTVSS
VL: DIQMTQSPSSLSASVGDRVTITCRVSSIISSSKLHWYQQKPGKAPKPLIYGTSTLASGVPSRFSGSGSGTDYTLTISSLQPEDFATYYCQQWSNYPFTFGQGTKLEIKR
notes: Human IgG1 / kappa
For the molecule B1, the Kd in experiment [1] is less than 1 nM. In experiment [2], the “Antibody Binding Activity by Flow iQue” value was determined as 163000.

What is called Kd is a measure of binding affinity in units of concentration. A lower Kd goes with a tighter complex.
